Laboratory results as given in patent publication US20150297680A1.

Target: human serum albumin (HSA) (human) (UniProt P02768)
Experiment: HSA-coupled agarose beads, washed with PBS, fluorescence plate reader (ex 480 nm, em 510 nm)

Chain of UniProt P02768 (P02768 25-609 limits assumed): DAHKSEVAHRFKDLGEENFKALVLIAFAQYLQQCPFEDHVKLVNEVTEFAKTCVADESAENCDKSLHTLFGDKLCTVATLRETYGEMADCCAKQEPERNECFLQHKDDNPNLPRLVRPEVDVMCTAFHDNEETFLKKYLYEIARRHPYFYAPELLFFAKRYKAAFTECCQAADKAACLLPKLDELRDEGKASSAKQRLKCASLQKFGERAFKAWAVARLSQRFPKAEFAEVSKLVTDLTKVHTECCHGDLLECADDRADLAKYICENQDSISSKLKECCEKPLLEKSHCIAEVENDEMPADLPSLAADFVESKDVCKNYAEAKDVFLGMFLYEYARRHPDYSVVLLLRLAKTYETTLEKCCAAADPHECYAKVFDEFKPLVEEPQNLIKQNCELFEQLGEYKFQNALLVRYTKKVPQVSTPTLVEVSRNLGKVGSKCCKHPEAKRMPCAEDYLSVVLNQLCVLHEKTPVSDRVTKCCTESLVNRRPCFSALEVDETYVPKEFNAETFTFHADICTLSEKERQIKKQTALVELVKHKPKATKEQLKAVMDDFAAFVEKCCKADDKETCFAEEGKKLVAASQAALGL

## palmitic acid-conjugated superfolder green fluorescent protein (sfGFP-Pal)
  fold fluorescence of HSA-coupled beads against those with sfGFP-WT: 20 fold
